According to article PMC12871438, “Single-molecule localization microscopy reveals the molecular organization of endogenous membrane receptors” (Science Advances, 2026):

Assays:
[1] = molecular target: CD45 (human (endogenous in Jurkat)) (UniProt P08575); assay: dSTORM localization statistics (number of localizations per cluster); live Jurkat T cells of large passage number labelled on ice with HI30-AF647, then fixed with 2% FA and 0.25% GA; TIRF on the basal membrane; DBSCAN clusters compared with theoretical monomer and dimer distributions
[2] = molecular target: the molecule itself; assay: dSTORM localization statistics (number of localizations per cluster); Jurkat T cells labelled with FN50-AF647, live on ice or after PFA or FA fixation, independent of the passage number; DBSCAN clusters compared with theoretical monomer and dimer distributions

| Molecule | stoichiometry N [1] | stoichiometry N [2] |
| --- | --- | --- |
| CD45 (from UniProt P08575 26-1306) (receptor) | 2 | – |
| CD69 (receptor, human (endogenous in Jurkat), UniProt Q07108 1-199, looked up, CD69, endogenous in the plasma membrane of human Jurkat T cells; the introduction describes it as a phosphorylated disulfide-linked homodimer; Written as the protomer; the self-association row gives the dimer; Detected with the anti-CD69 antibody FN50-AF647; source: endogenous, on Jurkat T cells (Jurkat E6-1)) MSSENCFVAENSSLHPESGQENDATSPHFSTRHEGSFQVPVLCAVMNVVFITILIIALIALSVGQYNCPGQYTFSMPSDSHVSSCSEDWVGYQRKCYFISTVKRSWTSAQNACSEHGATLAVIDSEKDMNFLKRYAGREEHWVGLKKEPGHPWKWSNGKEFNNWFNVTGSDKCVFLKNTEVSSMECEKNLYWICNKPYK | – | 2 |
